Several values for one entry are separate records, joined by “and”; a condition that tells them apart may be missing. Equal values may be shown once.
Molecular target: human IL-2 (human, UniProt P60568 21-153)
Assay: FACS

B1: yeast-displayed 602 scFv (scFv, V domains shown)
VH: EVQLQESGPGLVAPSQSLSITCTVSGFSLTNYDISWIRQPPGKGLEWLGVIWTGGGTNYNSGFMSRLSITKDNSKSQVFLKMNSLQTDDTAIYYCVRQGRTPYWGQGTLVTVSA
VL: DIQVTQSPSSLSVSLGDRVTITCKASKDIYNRLAWYQQKPGNAPRLLISGATSLETGVPSRFSGSGSGKDYTLTITSLQTEDVATYYCQQFWGTPYTFGGGTKLEIK
Q: For B1, which EC50 is on record?
A: 0.0133 µM and 0.0122 µM

Source: article PMC11457862 (2024)
